Patent publication US20170265788A1

Assays:
p53 (Santa Cruz sc-4246) [1] = molecular target: p53 (Santa Cruz sc-4246) (UniProt P04637); assay: LSPR fiber tip probe, second of three devices, Langmuir fit
p53 (Santa Cruz sc-4246) [2] = molecular target: p53 (Santa Cruz sc-4246) (UniProt P04637); assay: LSPR fiber tip probe, shift vs. concentration, Langmuir fit
p53 (Santa Cruz sc-4246) [3] = molecular target: p53 (Santa Cruz sc-4246) (UniProt P04637); assay: LSPR fiber tip probe, first of three devices, Langmuir fit
p53 (Santa Cruz sc-4246) [4] = molecular target: p53 (Santa Cruz sc-4246) (UniProt P04637); assay: LSPR fiber tip probe, antibody on gold nanorod, 18.92 nM p53 in PBS
p53 (Santa Cruz sc-4246) [5] = molecular target: p53 (Santa Cruz sc-4246) (UniProt P04637); assay: LSPR fiber tip probe, third of three devices, Langmuir fit
p53 (Santa Cruz sc-4246) [6] = molecular target: p53 (Santa Cruz sc-4246) (UniProt P04637); assay: UV-Visible spectroscopy of antibody-coated gold nanorods in solution, resonance shift vs. concentration, Langmuir fit
p53 (Santa Cruz sc-4246) [7] = molecular target: p53 (Santa Cruz sc-4246) (UniProt P04637); assay: LSPR fiber tip probe, shift vs. concentration, Langmuir fit (FIG. 3B)
p53 (Santa Cruz sc-4246) [8] = molecular target: p53 (Santa Cruz sc-4246) (UniProt P04637); assay: LSPR fiber tip probe, antibody on gold nanorod, 1 nM p53 in PBS

Chain of UniProt P04637 (P04637 whole entry): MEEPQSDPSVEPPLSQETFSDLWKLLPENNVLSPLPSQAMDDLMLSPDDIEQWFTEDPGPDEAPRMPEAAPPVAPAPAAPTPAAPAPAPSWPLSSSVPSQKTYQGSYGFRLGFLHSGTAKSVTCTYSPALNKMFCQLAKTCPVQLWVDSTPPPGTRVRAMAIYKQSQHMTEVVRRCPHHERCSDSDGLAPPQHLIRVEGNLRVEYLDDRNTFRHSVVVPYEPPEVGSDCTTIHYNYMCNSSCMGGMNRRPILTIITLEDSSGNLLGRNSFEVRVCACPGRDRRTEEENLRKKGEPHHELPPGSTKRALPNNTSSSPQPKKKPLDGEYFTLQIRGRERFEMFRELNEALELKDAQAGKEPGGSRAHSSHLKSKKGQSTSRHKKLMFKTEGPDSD

Kd (p53 (Santa Cruz sc-4246) [1]): 4.2 nM
Kd (p53 (Santa Cruz sc-4246) [2]): 5.5 nM
Kd (p53 (Santa Cruz sc-4246) [3]): 5.5 nM
LSPR shift (p53 (Santa Cruz sc-4246) [4]): 5.13 nm
Kd (p53 (Santa Cruz sc-4246) [5]): 7.1 nM
Kd (p53 (Santa Cruz sc-4246) [6]): 4.3 nM
Kd (p53 (Santa Cruz sc-4246) [7]): 5.4 nM
LSPR shift (p53 (Santa Cruz sc-4246) [8]): 0.55 nm
Substance: p53 antibody (Santa Cruz sc-126)
